Results on 16 molecules are retold here after patent US20230035798A1 (CAPELLA BIOSCIENCE, published 2023).

The labels stand for the following.
B1: 3D12_var3 (antibody, human IgG4, V domains shown)
VH: QVQLVQSGAEVKKPGASVKVSCKASDYTFTDSEIHWVRQAPGQGLEWMGEIDPETGGTAYAQKFQGRVTLTADKSTSTAYMELSSLRSEDTAVYYCSRETDYFFDYWGQGTLVTVSS
VL: DIQMTQSPSSLSASVGDRVTITCGASENIYGALNWYQRKQGKAPQLLIYGATNLADGVSSRFSGSGSGRDYTLTISSLQPEDVATYYCQNVLSTPWTFGQGTKLEIKR
notes: human IgG4 (S241P, L248E, Kabat); also called 3D12 VL1VH3 (var3)
B2: 3D12_var13 (antibody, human IgG4, V domains shown)
VH: B1 VH with M48I, A61N, Q65K, V68A
VL: B1 VL with G24R, R38Q, Q40P, Q45K, D56E, S59P
notes: human IgG4 (S241P, L248E, Kabat); also called 3D12 VL4VH1 (var13)
B3: 3D12_var7 (antibody, human IgG4, V domains shown)
VH: B1 VH
VL: B1 VL with Q45K, S59P
notes: human IgG4 (S241P, L248E, Kabat); also called 3D12 VL2VH3 (var7)
B4: 3D12_var8 (antibody, human IgG4, V domains shown)
VH: B1 VH with D26G, I34M
VL: B1 VL with Q45K, S59P
notes: human IgG4 (S241P, L248E, Kabat); also called 3D12 VL2VH4 (var8)
B5: 3D12_var5 (antibody, human IgG4, V domains shown)
VH: B1 VH with M48I, A61N, Q65K, V68A
VL: B1 VL with Q45K, S59P
notes: human IgG4 (S241P, L248E, Kabat); also called 3D12 VL2VH1 (var5)
B6: 3D12_var10 (antibody, human IgG4, V domains shown)
VH: B1 VH with M48I, A61N
VL: B1 VL with R38Q, Q40P, Q45K, S59P
notes: human IgG4 (S241P, L248E, Kabat); also called 3D12 VL3VH2 (var10)
B7: 3D12_var14 (antibody, human IgG4, V domains shown)
VH: B1 VH with M48I, A61N
VL: B1 VL with G24R, R38Q, Q40P, Q45K, D56E, S59P
notes: human IgG4 (S241P, L248E, Kabat); also called 3D12 VL4VH2 (var14)
B8: 3D12_var4 (antibody, human IgG4, V domains shown)
VH: B1 VH with D26G, I34M
VL: B1 VL
notes: human IgG4 (S241P, L248E, Kabat); also called 3D12 VL1VH4 (var4)
B9: 3D12_var6 (antibody, human IgG4, V domains shown)
VH: B1 VH with M48I, A61N
VL: B1 VL with Q45K, S59P
notes: human IgG4 (S241P, L248E, Kabat); also called 3D12 VL2VH2 (var6)
B10: 3D12_var15 (antibody, human IgG4, V domains shown)
VH: B1 VH
VL: B1 VL with G24R, R38Q, Q40P, Q45K, D56E, S59P
notes: human IgG4 (S241P, L248E, Kabat); also called 3D12 VL4VH3 (var15)
B11: 3D12_var16 (antibody, human IgG4, V domains shown)
VH: B1 VH with D26G, I34M
VL: B1 VL with G24R, R38Q, Q40P, Q45K, D56E, S59P
notes: human IgG4 (S241P, L248E, Kabat); also called 3D12 VL4VH4 (var16)
B12: 3D12_var11 (antibody, human IgG4, V domains shown)
VH: B1 VH
VL: B1 VL with R38Q, Q40P, Q45K, S59P
notes: human IgG4 (S241P, L248E, Kabat); also called 3D12 VL3VH3 (var11)
B13: 3D12_var9 (antibody, human IgG4, V domains shown)
VH: B1 VH with M48I, A61N, Q65K, V68A
VL: B1 VL with R38Q, Q40P, Q45K, S59P
notes: human IgG4 (S241P, L248E, Kabat); also called 3D12 VL3VH1 (var9)
B14: 3D12_var12 (antibody, human IgG4, V domains shown)
VH: B1 VH with D26G, I34M
VL: B1 VL with R38Q, Q40P, Q45K, S59P
notes: human IgG4 (S241P, L248E, Kabat); also called 3D12 VL3VH4 (var12)
B15: HVEM-Fc (Fc fusion, UniProt Q92956 37-202, looked up)
chain: PALPSCKEDEYPVGSECCPKCSPGYRVKEACGELTGTVCEPCPPGTYIAHLNGLSKCLQCQMCDPAMGLRASRNCSRTENAVCGCSPGHFCIVQDGDHCAACRAYATSSPGQRVQKGGTESQDTLCQNCPPGTFSPNGTLEECQHQTKCSWLVTKAGAGTSSSHWV
modifications: biotinylated (EZ-Link NHS-LC-Biotin) in the competition assays
notes: also called biotin-HVEM-Fc; biotinylated HVEM-Fc; not shown: Fc part of the bought fusion protein
B16: LTβR-Fc (Fc fusion, UniProt P36941 28-227, looked up)
chain: SQPQAVPPYASENQTCRDQEKEYYEPQHRICCSRCPPGTYVSAKCSRIRDTVCATCAENSYNEHWNYLTICQLCRPCDPVMGLEEIAPCTSKRKTQCRCQPGMFCAAWALECTHCELLSDCPPGTEAELKDEVGKGNNHCVPCKAGHFQNTSSPSARCQPHTRCENQGLVEAAPGTAQSDTTCKNPLEPLPPEMSGTMLM
modifications: biotinylated (EZ-Link NHS-LC-Biotin) in the competition assays
notes: also called LTBR-Fc; biotin-LTβR-Fc; not shown: Fc part of the bought fusion protein

Numbering of substitutions follows the chain as printed. Numbers in names are those of the source.

In the first assay the target is membrane LIGHT without residues 81-84 (EL4-NC-LIGHT cells) (human, UniProt O43557 1-240). The experiment in a line: cell-based or functional assay.
Chain of membrane LIGHT without residues 81-84 (EL4-NC-LIGHT cells) (O43557 other isoform, or with tags, fused parts or gaps): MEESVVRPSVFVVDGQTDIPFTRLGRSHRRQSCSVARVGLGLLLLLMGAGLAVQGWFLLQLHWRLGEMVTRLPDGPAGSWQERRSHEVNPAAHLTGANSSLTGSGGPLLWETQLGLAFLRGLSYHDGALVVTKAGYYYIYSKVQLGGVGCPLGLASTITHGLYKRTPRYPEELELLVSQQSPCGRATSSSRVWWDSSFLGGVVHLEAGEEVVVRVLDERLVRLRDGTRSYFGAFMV
For B1, the “IC50, inhibition of IL-8 secretion from HT-29 cells (EL4-NC-LIGHT cells)” value (“IC50, inhibition of IL-8 secretion” for short) amounted to 0.53 nM.

For B2, the “IC50, inhibition of IL-8 secretion” value is 0.45 nM.

Consider B3, for which the “IC50, inhibition of IL-8 secretion” value was 0.54 nM.

Turning to B4, the “IC50, inhibition of IL-8 secretion” value was 0.67 nM.

As for B5, the “IC50, inhibition of IL-8 secretion” value was 0.59 nM.

Turning to B6, the “IC50, inhibition of IL-8 secretion” value was 0.44 nM.

Consider B7, for which the “IC50, inhibition of IL-8 secretion” value was 0.45 nM.

Turning to B8, the “IC50, inhibition of IL-8 secretion” value worked out at 0.66 nM.

Turning to B9, the “IC50, inhibition of IL-8 secretion” value came to 0.47 nM.

B10: the “IC50, inhibition of IL-8 secretion” value was 0.38 nM.

Take B11: the “IC50, inhibition of IL-8 secretion” value is 0.52 nM.

Take B12: the “IC50, inhibition of IL-8 secretion” value came to 0.55 nM.

Turning to B13, the “IC50, inhibition of IL-8 secretion” value came to 0.71 nM.

As for B14, the “IC50, inhibition of IL-8 secretion” value worked out at 0.58 nM.

The target in the next assay is T1, human LIGHT (TNFSF14), full length, membrane-bound (214E allele) (human, UniProt O43557 1-240).
T1 construct: also called membrane LIGHT; human membrane LIGHT
T1 sequence (O43557 whole entry K214E): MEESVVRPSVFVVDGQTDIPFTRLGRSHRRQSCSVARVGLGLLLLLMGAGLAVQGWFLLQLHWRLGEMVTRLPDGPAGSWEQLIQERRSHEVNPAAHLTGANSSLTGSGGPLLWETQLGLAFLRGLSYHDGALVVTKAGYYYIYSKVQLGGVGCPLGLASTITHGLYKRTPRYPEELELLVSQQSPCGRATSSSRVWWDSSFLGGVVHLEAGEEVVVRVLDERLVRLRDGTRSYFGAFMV
The experiment in a line: flow cytometry, EL4-LIGHT cells. A general note: A flow cytometer gives signals particle by particle.
For the molecule B1, the EC50 – broadly, the concentration at which the effect is half-maximal – was found to be 0.33 nM.

In the case of B2, the midpoint of the response, the EC50, lay at 0.24 nM.

With B3, a half-maximal response (EC50) required 0.38 nM.

As for B4, the EC50 was 0.31 nM.

As for B5, the concentration for a half-maximal effect (EC50) is 0.33 nM.

In turn, B6 registered an EC50 of 0.39 nM.

With B7, a half-maximal effect (EC50) was put at 0.23 nM.

In the case of B8, a half-maximal response (EC50) required 0.32 nM.

B9: the EC50 is 0.31 nM.

B10 returned an EC50 of 0.22 nM. This EC50 and that of the molecule before are within 1.5-fold of each other.

For B11, the EC50 was 0.26 nM.

Molecule B12 came in with an EC50 of 0.34 nM.

With B13, a half-maximal effect (EC50) was put at 0.36 nM. The EC50 values of the last two molecules are within 1.5-fold of each other.

Consider B14, for which the EC50 came out at 0.33 nM.

The target of another assay is T1, human LIGHT (TNFSF14), full length, …. The experiment in a line: flow cytometry, HEK293FF human LIGHT cells (value given in the method).
In turn, B15 yielded an EC50 of 45 nM.

B16 showed a concentration for a half-maximal effect (EC50) of 15 nM.
